Substitutions are numbered along the chain they refer to. Names and notes keep the numbering of the source.
How the values were obtained:
cross-linking = target: the molecule itself; experiment: cross-linking
cryo-EM structure = target: the molecule itself; experiment: cryo-EM structure
[1] = target: Full-length mouse NINJ1(K45Q) (mouse, UniProt O70131, K45Q); experiment: SPR

B1: Endogenous NINJ1 of mouse bone marrow-derived macrophages (natural protein)
chain: MESGTEEYELNGDLRPGSPGSPDALPPRWGLRNRPINVNHYANKKSAAESMLDIALLMANASQLKAVVEQGNDFAFFVPLVVLISISLVLQIGVGVLLIFLVKYDLNNPAKHAKLDFLNNLATGLVFIIVVVNIFITAFGVQKPVMDVAPRQ
- stoichiometry N (cross-linking): 2 subunits

B2: Full-length mouse NINJ1(K45Q) (natural protein)
chain: B1 chain with K45Q
- stoichiometry N (cryo-EM structure): 4 subunits

B3: Nb538 (His-tagged, purified) (VHH)
VHH: EVQLVESGGGLVQPGGSLRLSCAASGFNVYSSSYYYVGWVRRAPGKGEELVARISPSYGYTYYADSVKGRFTISADTSKNTAYLQMNSLRAEDTAVYYCEVYIFGQYFESGQGTLVTVSS
- Kd [1]: 24 nM

From article PMC11711097 (Nature, 2024)
